Holding throughout (settings): both partners purified
For one assay, the target named is T1, FITC-MYC (also: FITC label, position not given here).
T1 chain: PAAKRVKLD
Nature of the assay: fluorescence polarisation; saturation binding: dilution series of the protein domain added to 10 nM FITC-labelled peptide; 50 mM sodium phosphate pH 7.4, 0.05% Tween (protein dialysed in 50 mM sodium phosphate with 1 mM DTT; CASK kinase domain with 100 mM NaCl in addition); quadratic fit; technical triplets. Background: Polarisation of emitted light reports the rotation of a fluorescent probe.

Another assay has as its target T2, FITC-NCOR2 (also: FITC label, position not given here).
T2 chain: PKRTYDMMEGRVGRAI
The assay is described as above.

Assay [1] has as its target T3, importin subunit α-3 (KPNA4) ARM domain (human).
T3 chain: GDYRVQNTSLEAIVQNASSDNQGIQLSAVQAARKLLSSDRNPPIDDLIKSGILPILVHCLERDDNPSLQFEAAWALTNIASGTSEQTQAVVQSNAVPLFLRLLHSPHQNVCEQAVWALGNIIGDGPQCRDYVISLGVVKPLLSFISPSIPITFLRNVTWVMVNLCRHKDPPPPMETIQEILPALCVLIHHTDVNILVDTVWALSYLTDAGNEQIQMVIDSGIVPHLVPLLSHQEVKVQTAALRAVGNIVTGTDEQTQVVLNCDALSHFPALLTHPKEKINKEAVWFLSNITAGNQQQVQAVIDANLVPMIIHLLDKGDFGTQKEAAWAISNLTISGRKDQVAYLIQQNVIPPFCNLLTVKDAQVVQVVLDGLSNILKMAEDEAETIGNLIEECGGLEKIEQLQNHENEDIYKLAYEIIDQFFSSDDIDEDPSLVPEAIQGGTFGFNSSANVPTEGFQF
Briefly: fluorescence polarisation; displacement as a1, with a FITC-labelled probe sampling the major pocket of the ARM domain (KPNA4, KPNA7).

Assay [2] deals with T3, importin subunit α-3 (KPNA4) ARM domain. Briefly: fluorescence polarisation; displacement as a1, with a FITC-labelled probe sampling the minor pocket of the KPNA4 ARM domain.
In assay [3] the target is T4, peripheral plasma membrane protein CASK (CASK) kinase domain (human, UniProt O14936 12-276).
T4 construct: CASK, kinase domain; limits in Dataset EV2; source: E. coli Rosetta, purified
T4 sequence (looked up): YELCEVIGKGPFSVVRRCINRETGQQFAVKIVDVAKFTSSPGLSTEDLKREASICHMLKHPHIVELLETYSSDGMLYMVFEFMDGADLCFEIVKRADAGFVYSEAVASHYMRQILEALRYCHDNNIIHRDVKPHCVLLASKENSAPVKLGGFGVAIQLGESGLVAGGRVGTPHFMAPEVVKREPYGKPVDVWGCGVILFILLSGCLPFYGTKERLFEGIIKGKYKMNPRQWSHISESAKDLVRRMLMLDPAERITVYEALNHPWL
Briefly: fluorescence polarisation; displacement: unlabelled peptide titrated onto a complex of FITC-labelled peptide (10 nM) and protein domain (1-2x KD); 50 mM sodium phosphate buffer pH 7.4 (CASK: plus 100 mM NaCl); KD calculated from IC50; technical triplets.

In assay [4] the target is T5, E3 ubiquitin-protein ligase NEDD4 (NEDD4) WW2 domain, GST-tagged (human).
T5 construct: also called NEDD4 WW2-GST
Nature of the assay: fluorescence polarisation.

For assay [5], the target named is importin subunit α-8 (KPNA7) ARM domain. Nature of the assay: fluorescence polarisation; displacement as a1, with a FITC-labelled probe sampling the major pocket of the ARM domain (KPNA4, KPNA7).
The target of the next assay is T6, CREBBP KIX (human, UniProt Q92793 587-666).
T6 construct: CREBBP, KIX domain; limits in Dataset EV2; source: E. coli BL21 DE (Gold), purified
Nature of the assay: fluorescence polarisation; displacement: unlabelled peptide titrated onto a complex of FITC-labelled peptide (10 nM) and protein domain (1-2x KD); 50 mM sodium phosphate buffer pH 7.4 (CASK: plus 100 mM NaCl); KD calculated from IC50; technical triplets.

Assay [6] has as its target T7, clathrin N-terminal domain (CLTC NTD) (human).
T7 chain: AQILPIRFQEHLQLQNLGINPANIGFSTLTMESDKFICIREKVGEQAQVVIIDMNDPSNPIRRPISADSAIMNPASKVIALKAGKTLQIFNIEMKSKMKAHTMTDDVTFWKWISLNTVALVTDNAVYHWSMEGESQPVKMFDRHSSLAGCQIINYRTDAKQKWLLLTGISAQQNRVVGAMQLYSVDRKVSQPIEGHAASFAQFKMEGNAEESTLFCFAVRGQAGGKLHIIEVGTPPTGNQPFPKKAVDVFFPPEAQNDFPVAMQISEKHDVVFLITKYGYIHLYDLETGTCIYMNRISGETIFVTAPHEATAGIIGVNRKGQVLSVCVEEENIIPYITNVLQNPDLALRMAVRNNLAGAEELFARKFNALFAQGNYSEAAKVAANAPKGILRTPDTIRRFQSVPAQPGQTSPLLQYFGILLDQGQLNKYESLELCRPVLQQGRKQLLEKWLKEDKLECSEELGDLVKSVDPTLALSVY
The assay is described as above.

For assay [7], the target named is T8, Ras-GTPase-activating protein-binding protein 1 (G3BP1) NTF2 domain (human, UniProt Q13283 11-133).
T8 construct: G3BP1, NTF2 domain; limits in Dataset EV2; source: E. coli BL21 DE (Gold), purified
The assay is described as above.
T8 sequence (Q13283 11-133): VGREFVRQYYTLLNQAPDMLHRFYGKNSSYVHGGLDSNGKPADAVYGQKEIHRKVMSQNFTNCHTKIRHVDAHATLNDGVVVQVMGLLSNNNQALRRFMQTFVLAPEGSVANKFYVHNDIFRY

For assay [8], the target named is T9, Clathrin N-terminal domain (CLTC NTD) (human).
T9 construct: also called Clathrin NTD
Nature of the assay: fluorescence polarisation.

Assay [9] deals with T10, Ras-GTPase-activating protein-binding protein 1 (G3BP1) NTF2 domain (human, UniProt Q13283 11-133).
T10 construct: also called G3BP1 NTF1
Briefly: fluorescence polarisation.
T10 sequence (Q13283 11-133): as above

For assay [10], the target named is T11, Ras-GTPase-activating protein-binding protein 2 (G3BP2) NTF2 domain (human, UniProt Q9UN86 11-133).
T11 sequence (looked up): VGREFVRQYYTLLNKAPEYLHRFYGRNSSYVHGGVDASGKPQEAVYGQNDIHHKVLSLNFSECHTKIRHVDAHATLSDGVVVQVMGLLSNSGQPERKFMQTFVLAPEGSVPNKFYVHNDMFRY
Nature of the assay: fluorescence polarisation.

In assay [11] the target is T12, ADP-ribosylation factor-binding protein GGA1 (GGA1) VHS domain (human, UniProt Q9UJY5 17-147).
T12 construct: GGA1, VHS domain; limits in Dataset EV2; source: E. coli BL21 DE (Gold), purified
T12 sequence (looked up): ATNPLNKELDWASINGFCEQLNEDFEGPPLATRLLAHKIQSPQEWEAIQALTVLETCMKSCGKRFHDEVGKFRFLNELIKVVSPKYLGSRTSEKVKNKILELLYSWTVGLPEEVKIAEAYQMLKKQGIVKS
Nature of the assay: fluorescence polarisation; displacement: unlabelled peptide titrated onto a complex of FITC-labelled peptide (10 nM) and protein domain (1-2x KD); 50 mM sodium phosphate buffer pH 7.4 (CASK: plus 100 mM NaCl); KD calculated from IC50; technical triplets.

For the next assay, the target named is T13, PPIA (human, UniProt P62937 1-165).
T13 construct: PPIA, human; source: E. coli BL21 (DE3) Gold, purified (glutathione or Ni2+ beads)
Briefly: fluorescence polarisation; saturation binding: dilution series of the protein domain added to 10 nM FITC-labelled peptide; 50 mM sodium phosphate pH 7.4, 0.05% Tween (protein dialysed in 50 mM sodium phosphate with 1 mM DTT; CASK kinase domain with 100 mM NaCl in addition); quadratic fit; technical triplets.

For assay [12], the target named is T14, Ras-GTPase-activating protein-binding protein 2 (G3BP2) NTF2 domain (human, UniProt Q9UN86 11-133).
T14 construct: G3BP2, NTF2 domain; limits in Dataset EV2; source: E. coli BL21 DE (Gold), purified
T14 sequence (looked up): T11 sequence (looked up)
Briefly: fluorescence polarisation; displacement: unlabelled peptide titrated onto a complex of FITC-labelled peptide (10 nM) and protein domain (1-2x KD); 50 mM sodium phosphate buffer pH 7.4 (CASK: plus 100 mM NaCl); KD calculated from IC50; technical triplets.

Where no end group is shown, it is not given here.

T6 sequence (Q92793 587-666): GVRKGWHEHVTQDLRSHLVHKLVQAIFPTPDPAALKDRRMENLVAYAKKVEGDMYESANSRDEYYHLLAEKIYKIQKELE
Chain of importin subunit α-8 (KPNA7) ARM domain (chain, as listed by the source): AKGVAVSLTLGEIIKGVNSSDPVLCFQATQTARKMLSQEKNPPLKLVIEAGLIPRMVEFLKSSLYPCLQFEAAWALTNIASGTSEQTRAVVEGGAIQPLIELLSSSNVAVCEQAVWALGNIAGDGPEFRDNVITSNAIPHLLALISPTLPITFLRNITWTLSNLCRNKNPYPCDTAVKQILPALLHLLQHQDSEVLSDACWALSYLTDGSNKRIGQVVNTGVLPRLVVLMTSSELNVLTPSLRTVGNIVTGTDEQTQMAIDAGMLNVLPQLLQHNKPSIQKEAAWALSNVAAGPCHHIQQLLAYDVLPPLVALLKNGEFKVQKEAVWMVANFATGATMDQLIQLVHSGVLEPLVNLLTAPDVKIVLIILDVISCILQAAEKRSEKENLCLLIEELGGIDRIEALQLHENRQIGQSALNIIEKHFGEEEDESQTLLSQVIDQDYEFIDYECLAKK
T13 sequence (P62937 whole entry): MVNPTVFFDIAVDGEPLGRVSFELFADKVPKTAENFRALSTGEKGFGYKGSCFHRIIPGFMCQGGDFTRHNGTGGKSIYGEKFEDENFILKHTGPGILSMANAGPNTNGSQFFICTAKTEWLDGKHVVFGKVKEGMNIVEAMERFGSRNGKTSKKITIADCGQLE
T5 sequence (P46934 whole entry, the tested form may be a part): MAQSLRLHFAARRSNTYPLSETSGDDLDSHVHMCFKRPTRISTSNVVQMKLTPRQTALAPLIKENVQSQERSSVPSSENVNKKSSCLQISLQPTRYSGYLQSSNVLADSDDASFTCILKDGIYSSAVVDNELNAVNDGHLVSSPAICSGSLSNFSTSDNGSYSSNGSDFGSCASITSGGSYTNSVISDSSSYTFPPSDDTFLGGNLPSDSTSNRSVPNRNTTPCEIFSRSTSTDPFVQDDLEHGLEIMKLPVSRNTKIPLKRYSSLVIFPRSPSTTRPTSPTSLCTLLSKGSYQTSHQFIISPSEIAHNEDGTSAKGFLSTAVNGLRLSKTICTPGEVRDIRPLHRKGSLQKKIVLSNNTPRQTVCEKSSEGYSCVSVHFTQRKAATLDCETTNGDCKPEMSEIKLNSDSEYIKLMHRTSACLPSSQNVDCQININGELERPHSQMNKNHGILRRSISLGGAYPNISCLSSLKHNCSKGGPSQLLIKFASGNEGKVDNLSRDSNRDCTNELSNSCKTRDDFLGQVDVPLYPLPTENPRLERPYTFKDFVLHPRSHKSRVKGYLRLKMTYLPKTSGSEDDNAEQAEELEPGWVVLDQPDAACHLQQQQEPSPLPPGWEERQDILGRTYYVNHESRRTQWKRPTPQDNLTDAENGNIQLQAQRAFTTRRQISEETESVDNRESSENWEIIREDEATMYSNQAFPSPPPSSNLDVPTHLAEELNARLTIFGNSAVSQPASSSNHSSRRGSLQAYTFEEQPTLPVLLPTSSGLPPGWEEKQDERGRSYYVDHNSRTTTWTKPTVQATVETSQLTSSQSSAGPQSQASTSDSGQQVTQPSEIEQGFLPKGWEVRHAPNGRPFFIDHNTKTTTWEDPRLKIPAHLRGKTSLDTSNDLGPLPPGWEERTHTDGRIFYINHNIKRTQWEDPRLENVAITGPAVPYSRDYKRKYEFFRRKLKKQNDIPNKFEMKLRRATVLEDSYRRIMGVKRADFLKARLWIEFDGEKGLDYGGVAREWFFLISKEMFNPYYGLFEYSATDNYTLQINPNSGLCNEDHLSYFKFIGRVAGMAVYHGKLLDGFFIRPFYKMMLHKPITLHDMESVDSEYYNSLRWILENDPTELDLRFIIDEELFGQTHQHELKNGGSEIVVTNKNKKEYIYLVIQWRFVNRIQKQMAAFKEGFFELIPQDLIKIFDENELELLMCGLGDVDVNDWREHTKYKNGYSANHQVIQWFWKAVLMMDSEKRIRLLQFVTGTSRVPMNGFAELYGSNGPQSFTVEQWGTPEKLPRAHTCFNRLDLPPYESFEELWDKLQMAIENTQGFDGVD

B1: Importin subunit alpha-8 (KPNA7) ARM domain (domain or fragment)
chain: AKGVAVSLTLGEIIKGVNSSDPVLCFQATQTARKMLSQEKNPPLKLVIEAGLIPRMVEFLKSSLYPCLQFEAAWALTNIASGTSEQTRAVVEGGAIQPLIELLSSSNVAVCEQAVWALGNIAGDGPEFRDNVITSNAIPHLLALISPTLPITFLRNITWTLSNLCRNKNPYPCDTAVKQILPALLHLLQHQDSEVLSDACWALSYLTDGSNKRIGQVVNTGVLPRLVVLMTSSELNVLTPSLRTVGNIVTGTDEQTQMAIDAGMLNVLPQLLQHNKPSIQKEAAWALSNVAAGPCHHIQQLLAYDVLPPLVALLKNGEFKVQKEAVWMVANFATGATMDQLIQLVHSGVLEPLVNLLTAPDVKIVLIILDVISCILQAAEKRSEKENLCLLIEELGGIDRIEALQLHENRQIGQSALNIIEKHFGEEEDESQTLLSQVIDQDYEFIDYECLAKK
The term Kd denotes the equilibrium constant for the complex coming apart. Take B1: the Kd with FITC-MYC is 7.5 µM; in the assay with FITC-NCOR2, 57 µM.

B2: ABRAXAS1_(349-364) R361Q peptide (peptide)
peptide: LDLDDRWQFKRSQLLD
notes: also called ABRAXAS1 R361Q mutant; source: synthetic peptide, bought: Genecust
Take B2: the “KD, major pocket” value in assay [1] stood at 75 µM. In addition, the “KD, minor pocket” value in assay [2] came to 297 µM.

B3: MAPT 717-731 R723W peptide (peptide)
peptide: YSGDTSPWHLSNVSST
notes: microtubule-associated protein tau residues 717-731; also called MAPT R723W mutant; source: synthetic peptide, bought: Genecust
Consider B3, for which the Kd in assay [3] is 39 µM. In turn, TDSPPPYSAG (also: FITC label, position not given here) [FITC-UL56(HHV-2)] gave a Kd in [4] of 4.1 µM.

B4: CDC45_(152-166) wild-type peptide (peptide)
peptide: EPSEKRTRLEEEIVEY
notes: also called CDC45 R157C wild-type; source: synthetic peptide, bought: Genecust
As for B4, the “KD, major pocket” value in assay [5] came out at 6.6 µM.

B5: FANCA 1-16 S4L peptide (peptide)
peptide: MSDLWVPNSASGQDPG
notes: FANCA residues 1-16; also called FANCA S4L mutant; source: synthetic peptide, bought: Genecust
Take B5: the Kd in [3] is 15 µM.

B6: KMT2A 2847-2861 wild-type peptide (peptide)
peptide: SDIMDFVLKNTPSMQY
notes: also called KMT2A L2854Q wild-type; source: synthetic peptide, bought: Genecust
B6: the Kd with CREBBP KIX was 380 µM.

B7: KMT2A 2847-2861 L2854Q peptide (peptide)
peptide: SDIMDFVQKNTPSMQY
notes: also called KMT2A L2854Q mutant; source: synthetic peptide, bought: Genecust
Turning to B7, the Kd with CREBBP KIX was 340 µM.

B8: MITF 258-271 Y265C peptide (peptide)
peptide: SGNLIDLCGNQGLPY
notes: also called MITF Y265C mutant; source: synthetic peptide, bought: Genecust
For B8, the Kd in [6] is 206 µM.

B9: MITF 258-271 wild-type peptide (peptide)
peptide: SGNLIDLYGNQGLPY
notes: also called MITF Y265C wild-type; source: synthetic peptide, bought: Genecust
With B9, the Kd in [6] is 191 µM.

B10: CTNNB1_(27-42) S33F peptide (peptide)
peptide: QQSYLDFGIHSGATTT
notes: β-catenin residues 27-42; also called CTNNB1 S33F mutant; source: synthetic peptide, bought: Genecust
In the case of B10, in assay [7], the Kd is 57 µM. Consider SVDLITFDSV (also: FITC label, position not given here) [FITC-NSP3], for which binding in [8] was characterised by a dissociation constant (Kd) of 21 µM.

APRITFGGPSDS (also: FITC label, position not given here) [FITC-N_SARS-CoV-2]: the Kd is 2.51 µM in assay [9] and 5.4 µM in assay [10].

B11: myosin-9 peptide (MYH9_(1419-1433)) wild-type (peptide)
peptide: YQQELDDLLVDLDHQR
notes: MYH9 residues 1419-1433; also called MYH9 D1424H wild-type; source: synthetic peptide, bought: Genecust
For B11, the Kd in assay [11] is 101 µM.

B12: MYH9_(1419-1433) D1424H peptide (peptide)
peptide: YQQELDHLLVDLDHQR
notes: MYH9 residues 1419-1433; also called MYH9 D1424H mutant; source: synthetic peptide, bought: Genecust
With B12, in assay [11], the Kd is 306 µM.

B13: Importin subunit alpha-3 (KPNA4) ARM domain (domain or fragment)
chain: T3 chain
B13: the results for the Kd in the assay with FITC-MYC and in the assay with FITC-NCOR2 were 0.008 µM and 0.03 µM, respectively. Molecule EQVEYGPLQAQM (also: FITC label, position not given here) [FITC-SPHK2] came in with a Kd with PPIA of 42 µM.

B14: BCL11A_(44-56) wild-type peptide (peptide)
peptide: DLLTCGQAQMNFPY
notes: BCL11A residues 44-56; source: synthetic peptide, bought: Genecust
As to B14, the Kd in [6] was 1100 µM.

B15: BCL11A_(44-56) C48F peptide (peptide)
peptide: DLLTFGQAQMNFPY
notes: BCL11A residues 44-56; also called C47F BCL11A; source: synthetic peptide, bought: Genecust
In the case of B15, the Kd is 361 µM in assay [6] and 215 µM in assay [12].

B16: NSD1 1793-1808 L1797P peptide (peptide)
peptide: EFPVPFFGSNDYLWTH
notes: also called NSD1 L1797P mutant; source: synthetic peptide, bought: Genecust
On to B16, for which the Kd in assay [7] was 49 µM.

B17: CDC45_(152-166) R157C peptide (peptide)
peptide: EPSEKCTRLEEEIVEY
notes: also called CDC45 R157C mutant; source: synthetic peptide, bought: Genecust
Take B17: the “KD, major pocket” value in assay [5] worked out at 380 µM.

The record behind these values is publication PMC11369174 (Molecular Systems Biology, 2024).
